The text below walks through data of article PMC4447253 (mBio, 2015).

The series “native gel or EMSA” deals with the molecule itself. Briefly: native gel or EMSA.
The series “cross-linking” concerns the molecule itself. In words: cross-linking.

B1: SpdB2-His (SpdB2 of plasmid pSVH1) (natural protein, Streptomyces venezuelae (plasmid pSVH1), UniProt Q3LAJ4 1-409, looked up)
chain: MSTYREEKRLDDQLRAEQKLRNEQLRAEQAREDRRLELEATQQRDAARAEEKRKDAEAKRRQEQAEKKARAAEQQAKKAAAAAKRAKLVRWLKANPATLFVGFVMVASIVPALLSQIGALTGATVAAPMAGLLAAMLEGGAWAITFMGKQAEDAGREPRKYRIGTWAVATVAAAVNFWHGLEAYGEHPWVAFVLGASSLFAIYIWDLKTHGSHGKTKEQKQAEKARRAHVSARRKHHPEIVEQAVKLQAALPYGVLDDESAFAAAWRIHTGAEPGLSAQLYATATEAVLQLGAAFELGDNVRDELLETGFKAARLNPFAELAQVPGSQAGLEENAPQGPASALRPDAPEGKSPEELEALLPDAVAAAAELVAEGRQISAHGLAKKLQIRRVDAALLRDRVIEQRRLHVA
Consider B1, for which the binding result in the series “native gel or EMSA” is reported as “binds”.

B2: TraR-His (GntR-type transcriptional repressor TraR of plasmid pSVH1) (natural protein, Streptomyces venezuelae (plasmid pSVH1), UniProt Q3LAJ7 1-252, looked up)
chain: MTSTQSEKRVTARSIADDLRGKIRSGQLLPGSVLPTTKALAEEHGVSSKTVSAGIDLLKLEGLVVGEQGGRRRVRADRPITWNLTRFERGARRDSAVMDDWSTAISEAGRTPEQHVSVSRETANSDIAGWLQVPVGDDVVKRVRMRTVDGRPFQLSTSYFPKHVAVGTLLEEPGDVAVPGGILSHIGHPQLRVRDEISVRMPSPEESQELALPPGTPVAQHVRVGYGETGPVRVMVTIAPGDRHTLVYELEV
Consider B2, for which the “stoichiometry N” value in “cross-linking” amounted to 2.

As usually defined, the stoichiometry N is a count of units in the complex or per binding partner.
